# Reference: patent US20190256612A1 (NEW YORK UNIVERSITY, published 2019)
# How the values were obtained:
# [1] = target: T1, glutaraldehyde polymerized Aβ1-42 (oligomeric Aβ1-42) (UniProt P05067 672-713); assay: SPR, polymerized Aβ1-42 immobilised, antibody injected
# T1 construct: domain: Aβ1-42
# [2] = target: T2, Aβ40p (Covalently polymerized with glutaraldehyde into stable oligomers. The cross-links between copies cannot be carried by the letters, so only the monomer unit is given.); assay: immunoblot after SDS-PAGE, antigen on nitrocellulose, anti-mouse IgM detection
# T2 construct: also called Aβ1-40 polymerized; Aβ1-40 polymerized with glutaraldehyde
# [3] = target: T3, Aβ1-40; assay: as above
# T3 construct: also called Aβ1-40 as loaded on the gel (not polymerized)
binder,measurement,setting,value
anti-β-sheet conformational monoclonal antibody (aβComAb) GW-23B7 (antibody) heavy: EVQLQQSVAELVRPGASVKLSCTASGFNIKNTYMHWVKQRPEQGLEWIGRIDPANGNTKYAPKFQGKATITADTSSNTAYLQLSSLTSEDTAIYYCARGSFYAMDYWGQGTSVTVSSESQSFPNVFPLVSCESPLSDKNLVAMGCLARDFLPSTISFTWNYQNNTEVIQGIRTFPTLRTGGKYLATSQVLLSPKSILEGSDEYLVCKIHYGGKNRDLHVPIPAVAEMNPNVNVFVPPRDGFSGPAPRKSKLICEATNFTPKPITVSWLKDGKLVESGFTTDPVTIENKGSTPQTYKVISTLTISEIDWLNLNVYTCRVDHRGLTFLKNVSSTCAASPSTDILTFTIPPSFADIFLSKSANLTCLVSNLATYETLNISWASQSGEPLETKIKIMESHPNGTFSAKGVASVCVEDWNNRKEFVCTVTHRDLPSPQKKFISKPNEVHKHPPAVYLLPPAREQLNLRESATVTCLVKGFSPADISVQWLQRGQLLPQEKYVTSAPMPEPGAPGFYFTHSILTVTEEEWNSGETYTCVVGHEALPHLVTERTVDKSTGKPTLYNVSLIMSDTGGTCY light: DVQITQSPSYLAASPGETITINCRASKSINKYLAWYQEKPGKTNKLLIYSGSTLQSGIPSRFSGSGSGTDFTLTISSLEPEDFAMYHCQQHNEYPWTFGGGTKLEIKRADAAPTVSIFPPSSEQLTSGGASVVCFLNNFYPRDINVKWKIDGSERQNGVLNSWTDQDSKDSTYSMSSTLTLTKDEYERHNSYTCEATHKTSTSPIVKSFNRNEC,Kd,[1],14 nM
same,binding result,[2],binds
same,binding result,[3],binds
